Laboratory results: publication PMC9482650, “Quantitative fragmentomics allow affinity mapping of interactomes” (Nature Communications, 2022)

How the values were obtained:
Assay in all cases: holdup assay
Design in all cases: key: below the threshold = too weak to quantify, mostly under pKd 3.1 to 4
[1] = target: T1, APBA1_1, Q02410
T1 sequence (Q02410 651-752, limits assumed, looked up): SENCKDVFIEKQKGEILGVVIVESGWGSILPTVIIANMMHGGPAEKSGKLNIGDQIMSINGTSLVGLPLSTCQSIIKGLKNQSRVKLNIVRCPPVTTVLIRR

[2] = target: T2, GRIP1_2, Q9Y3R0
T2 sequence (Q9Y3R0 145-248, limits assumed, looked up): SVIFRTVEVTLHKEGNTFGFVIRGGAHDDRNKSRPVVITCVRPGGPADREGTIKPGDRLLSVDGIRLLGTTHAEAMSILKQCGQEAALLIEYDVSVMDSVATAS

[3] = target: T3, SNTA1, Q13424
T3 sequence (Q13424 82-180, limits assumed, looked up): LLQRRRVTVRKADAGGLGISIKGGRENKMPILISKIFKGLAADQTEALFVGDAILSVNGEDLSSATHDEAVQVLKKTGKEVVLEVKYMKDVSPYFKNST

[4] = target: PDLIM1, O00151
[5] = target: T4, PDZRN3_1, Q9UPQ7
T4 sequence (Q9UPQ7 244-349, limits assumed, looked up): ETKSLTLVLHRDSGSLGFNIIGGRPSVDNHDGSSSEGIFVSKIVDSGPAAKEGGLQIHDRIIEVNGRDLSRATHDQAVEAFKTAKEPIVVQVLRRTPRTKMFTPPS

[6] = target: MAGI2_2, Q86UL8
[7] = target: T5, RADIL, Q96JH8
T5 sequence (Q96JH8 971-1071, limits assumed, looked up): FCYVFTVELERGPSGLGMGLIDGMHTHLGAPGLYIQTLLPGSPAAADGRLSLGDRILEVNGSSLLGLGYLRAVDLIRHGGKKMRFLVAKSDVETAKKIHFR

[8] = target: T6, RHPN1, Q8TCX5
T6 sequence (Q8TCX5 508-602, limits assumed, looked up): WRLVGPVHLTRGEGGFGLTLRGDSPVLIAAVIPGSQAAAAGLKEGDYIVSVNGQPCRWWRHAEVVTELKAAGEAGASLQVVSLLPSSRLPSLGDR

[9] = target: FRMPD3, Q5JV73
[10] = target: T7, SNTG2, Q9NY99
T7 sequence (Q9NY99 68-166, limits assumed, looked up): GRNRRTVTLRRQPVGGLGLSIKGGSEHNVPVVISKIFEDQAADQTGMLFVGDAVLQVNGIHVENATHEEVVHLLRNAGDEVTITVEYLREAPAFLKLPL

[11] = target: HTRA1, Q92743
[12] = target: IL16_3, Q14005
[13] = target: IL16_1, Q14005
[14] = target: MAST1, Q9Y2H9
[15] = target: Inadl_3, Q8NI35
[16] = target: T8, RAPGEF6, Q8TEU7
T8 sequence (Q8TEU7 525-625, limits assumed, looked up): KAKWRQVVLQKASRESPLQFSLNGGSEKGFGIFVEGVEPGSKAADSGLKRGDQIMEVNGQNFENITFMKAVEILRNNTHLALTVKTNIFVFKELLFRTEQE

[17] = target: GRID2IP_2, A4D2P6
[18] = target: TJP1_3, Q07157
[19] = target: T9, ARHGEF11, O15085
T9 sequence (O15085 42-136, limits assumed, looked up): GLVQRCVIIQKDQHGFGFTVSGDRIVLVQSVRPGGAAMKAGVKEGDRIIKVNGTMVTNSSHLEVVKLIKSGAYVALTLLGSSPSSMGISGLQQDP

[20] = target: LNX1_2, Q8TBB1
[21] = target: T10, NHERF3_3, Q5T2W1
T10 sequence (Q5T2W1 238-333, limits assumed, looked up): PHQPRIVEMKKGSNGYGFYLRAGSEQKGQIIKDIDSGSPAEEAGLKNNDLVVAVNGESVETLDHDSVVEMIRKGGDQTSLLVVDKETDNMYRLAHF

[22] = target: Inadl_5, Q8NI35
[23] = target: MAGI3_2, Q5TCQ9
[24] = target: ARHGEF12, Q9NZN5-2
[25] = target: DLG5_1, Q8TDM6
[26] = target: PTPN3, P26045
[27] = target: T11, MPP7, Q5T2T1
T11 sequence (Q5T2T1 134-230, limits assumed, looked up): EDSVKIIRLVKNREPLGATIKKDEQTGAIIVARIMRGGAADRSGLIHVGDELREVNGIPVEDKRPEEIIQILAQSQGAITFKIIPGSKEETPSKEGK

[28] = plain residues with an end cap or a label only (N-terminal biotin on a linker: ttds)
[29] = plain residues with an end cap or a label only (N-terminal biotin on a linker: ado-ado)
[30] = plain residues with an end cap or a label only (N-terminal biotin on a linker: none)

MAST1, Q9Y2H9, sequence (Q9Y2H9 962-1065): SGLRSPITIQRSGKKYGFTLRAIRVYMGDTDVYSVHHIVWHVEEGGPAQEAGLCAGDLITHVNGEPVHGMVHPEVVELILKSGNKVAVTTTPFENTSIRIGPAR
Inadl_3, Q8NI35, sequence (Q8NI35 359-469): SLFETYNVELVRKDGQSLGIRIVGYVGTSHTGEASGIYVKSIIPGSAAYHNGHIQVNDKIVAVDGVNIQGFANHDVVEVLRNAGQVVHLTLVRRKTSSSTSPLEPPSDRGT
ARHGEF12, Q9NZN5-2, sequence (Q9NZN5 other isoform, or with tags, fused parts or gaps): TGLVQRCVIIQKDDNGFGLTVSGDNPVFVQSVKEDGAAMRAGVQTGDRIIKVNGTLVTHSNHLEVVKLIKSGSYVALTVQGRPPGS
MAGI2_2, Q86UL8, sequence (Q86UL8 410-522): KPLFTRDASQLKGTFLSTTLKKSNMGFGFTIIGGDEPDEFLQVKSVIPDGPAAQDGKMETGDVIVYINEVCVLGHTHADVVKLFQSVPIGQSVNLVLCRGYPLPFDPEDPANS
FRMPD3, Q5JV73, sequence (Q5JV73 12-100): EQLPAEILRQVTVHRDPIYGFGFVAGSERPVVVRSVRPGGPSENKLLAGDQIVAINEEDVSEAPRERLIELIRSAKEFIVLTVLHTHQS
DLG5_1, Q8TDM6, sequence (Q8TDM6 617-713): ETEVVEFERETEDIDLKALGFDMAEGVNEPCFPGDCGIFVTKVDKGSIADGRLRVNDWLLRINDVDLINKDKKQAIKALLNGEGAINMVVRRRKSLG
IL16_1, Q14005, sequence (Q14005 210-306): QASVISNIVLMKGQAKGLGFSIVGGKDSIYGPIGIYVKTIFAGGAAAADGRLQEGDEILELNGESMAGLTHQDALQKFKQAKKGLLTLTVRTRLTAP
HTRA1, Q92743, sequence (Q92743 360-477): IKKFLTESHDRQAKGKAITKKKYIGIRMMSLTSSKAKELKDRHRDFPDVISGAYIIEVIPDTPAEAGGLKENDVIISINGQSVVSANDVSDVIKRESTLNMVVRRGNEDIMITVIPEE
IL16_3, Q14005, sequence (Q14005 1107-1207): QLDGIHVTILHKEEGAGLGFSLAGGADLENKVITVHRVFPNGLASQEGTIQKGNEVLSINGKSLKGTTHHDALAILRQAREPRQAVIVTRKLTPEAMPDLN
PTPN3, P26045, sequence (P26045 505-587): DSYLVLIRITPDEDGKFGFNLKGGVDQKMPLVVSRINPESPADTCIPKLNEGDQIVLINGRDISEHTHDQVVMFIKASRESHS
GRID2IP_2, A4D2P6, sequence (A4D2P6 272-370): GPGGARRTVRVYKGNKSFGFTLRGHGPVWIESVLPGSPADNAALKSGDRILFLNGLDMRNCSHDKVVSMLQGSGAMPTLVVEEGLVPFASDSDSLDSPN
PDLIM1, O00151, sequence (O00151 1-87): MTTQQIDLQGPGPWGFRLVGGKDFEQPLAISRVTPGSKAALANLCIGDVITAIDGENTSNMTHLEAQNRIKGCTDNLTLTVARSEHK
TJP1_3, Q07157, sequence (Q07157 416-512): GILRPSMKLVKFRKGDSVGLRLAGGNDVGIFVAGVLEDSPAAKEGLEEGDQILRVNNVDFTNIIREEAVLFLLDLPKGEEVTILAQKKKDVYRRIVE
Inadl_5, Q8NI35, sequence (Q8NI35 673-780): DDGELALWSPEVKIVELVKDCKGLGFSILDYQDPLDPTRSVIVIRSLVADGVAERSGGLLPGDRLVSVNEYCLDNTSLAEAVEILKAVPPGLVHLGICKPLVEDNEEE
LNX1_2, Q8TBB1, sequence (Q8TBB1 371-470): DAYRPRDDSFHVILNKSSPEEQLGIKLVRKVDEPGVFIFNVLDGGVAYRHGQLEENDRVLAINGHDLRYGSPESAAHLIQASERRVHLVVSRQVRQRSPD
MAGI3_2, Q5TCQ9, sequence (Q5TCQ9 398-503): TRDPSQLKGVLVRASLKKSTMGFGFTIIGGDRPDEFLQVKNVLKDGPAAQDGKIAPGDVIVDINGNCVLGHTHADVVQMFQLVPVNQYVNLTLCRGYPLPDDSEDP

HRTCYLVTQL [ASIC3, Q9UHC3]
pKd [1, 28]: below the threshold
pKd [2, 28]: below the threshold
pKd [3, 28]: 3.88
pKd [4, 28]: 3.46
pKd [5, 28]: 4.08
pKd [6, 28]: 4.14
pKd [7, 28]: 4.43
pKd [8, 28]: 4.46
pKd [9, 28]: 3.53
pKd [10, 28]: 3.75
pKd [11, 28]: 4.39
pKd [12, 28]: below the threshold
pKd [13, 28]: below the threshold
pKd [14, 28]: 4
pKd [15, 28]: 3.33
pKd [16, 28]: 3.49
pKd [17, 28]: 4.56
pKd [18, 28]: below the threshold
pKd [19, 28]: 4.83
pKd [20, 28]: 3.46
pKd [21, 28]: 3.52
pKd [22, 28]: below the threshold
pKd [23, 28]: 4.3
pKd [24, 28]: 5.63
pKd [25, 28]: below the threshold
pKd [26, 28]: 4.48
pKd [27, 28]: 3.25

LHLHGTGIQV [EPHA7, Q15375]
pKd [1, 29]: below the threshold
pKd [2, 29]: below the threshold
pKd [3, 29]: below the threshold
pKd [4, 29]: below the threshold
pKd [5, 29]: below the threshold
pKd [6, 29]: 3.51
pKd [7, 29]: 4.58
pKd [8, 29]: below the threshold
pKd [9, 29]: 3.5
pKd [10, 29]: below the threshold
pKd [11, 29]: 4.36
pKd [12, 29]: below the threshold
pKd [13, 29]: below the threshold
pKd [14, 29]: below the threshold
pKd [15, 29]: 3.55
pKd [16, 29]: below the threshold
pKd [17, 29]: below the threshold
pKd [18, 29]: below the threshold
pKd [19, 29]: 4.51
pKd [20, 29]: 4.37
pKd [21, 29]: below the threshold
pKd [22, 29]: 4.04
pKd [23, 29]: 3.55
pKd [24, 29]: 4.19
pKd [25, 29]: below the threshold
pKd [26, 29]: 4.06
pKd [27, 29]: below the threshold

RGGFGRQTQI [NCBP2L, A6PVI3]
pKd [1, 29]: below the threshold
pKd [2, 29]: below the threshold
pKd [3, 29]: 4.2
pKd [4, 29]: below the threshold
pKd [5, 29]: 3.74
pKd [6, 29]: 4.48
pKd [7, 29]: below the threshold
pKd [8, 29]: 4.5
pKd [9, 29]: below the threshold
pKd [10, 29]: 3.52
pKd [11, 29]: below the threshold
pKd [12, 29]: below the threshold
pKd [13, 29]: below the threshold
pKd [14, 29]: 4.6
pKd [15, 29]: below the threshold
pKd [16, 29]: below the threshold
pKd [17, 29]: 4.05
pKd [18, 29]: below the threshold
pKd [19, 29]: below the threshold
pKd [20, 29]: below the threshold
pKd [21, 29]: below the threshold
pKd [22, 29]: below the threshold
pKd [23, 29]: 4.79
pKd [24, 29]: 4.28
pKd [25, 29]: below the threshold
pKd [26, 29]: 4.49
pKd [27, 29]: below the threshold

TGDTLEKFVEGL [CBP, Q92793]
pKd [1, 28]: below the threshold
pKd [2, 28]: below the threshold
pKd [3, 28]: below the threshold
pKd [4, 28]: below the threshold
pKd [5, 28]: below the threshold
pKd [6, 28]: below the threshold
pKd [7, 28]: below the threshold
pKd [8, 28]: below the threshold
pKd [9, 28]: below the threshold
pKd [10, 28]: below the threshold
pKd [11, 28]: below the threshold
pKd [12, 28]: below the threshold
pKd [13, 28]: below the threshold
pKd [14, 28]: below the threshold
pKd [15, 28]: below the threshold
pKd [16, 28]: below the threshold
pKd [17, 28]: below the threshold
pKd [18, 28]: below the threshold
pKd [19, 28]: below the threshold
pKd [20, 28]: below the threshold
pKd [21, 28]: below the threshold
pKd [22, 28]: below the threshold
pKd [23, 28]: below the threshold
pKd [24, 28]: below the threshold
pKd [25, 28]: below the threshold
pKd [26, 28]: below the threshold
pKd [27, 28]: below the threshold

DSKPPLPPDEWV [MERS-E, K9N5R3]
pKd [1, 30]: 3.53
pKd [2, 30]: 3.62
pKd [3, 30]: below the threshold
pKd [4, 30]: below the threshold
pKd [5, 30]: below the threshold
pKd [6, 30]: below the threshold
pKd [7, 30]: 4.06
pKd [8, 30]: below the threshold
pKd [9, 30]: 4.17
pKd [10, 30]: 3.59
pKd [11, 30]: 4.34
pKd [12, 30]: below the threshold
pKd [13, 30]: 3.64
pKd [14, 30]: 3.91
pKd [15, 30]: 3.55
pKd [16, 30]: below the threshold
pKd [17, 30]: 3.53
pKd [18, 30]: 3.56
pKd [19, 30]: 3.91
pKd [20, 30]: below the threshold
pKd [21, 30]: below the threshold
pKd [22, 30]: 3.74
pKd [23, 30]: below the threshold
pKd [24, 30]: 3.76
pKd [25, 30]: below the threshold
pKd [26, 30]: 3.87
pKd [27, 30]: below the threshold
